Source: patent US20160368960A1
Starred links: 1 amine or outer side, 2 acyl side, 3 side chain; linkers in the order of their positions; H or OH if unused. Non-standard residues stand in square brackets, D forms with d. Groups on a side chain read outwards from the residue. *: point of attachment. C20 diacid = O=C(O)CCCCCCCCCCCCCCCCCCC(=O)*; C18 diacid = O=C(O)CCCCCCCCCCCCCCCCC(=O)*; γGlu = O=C(O)[C@H](CCC(=O)[*:2])N[*:1]; AEEA = NCCOCCOCC(=O)O; Aib = CC(C)(N)C(=O)O

T1: human GLP-1 receptor (human), P43220
T1 chain: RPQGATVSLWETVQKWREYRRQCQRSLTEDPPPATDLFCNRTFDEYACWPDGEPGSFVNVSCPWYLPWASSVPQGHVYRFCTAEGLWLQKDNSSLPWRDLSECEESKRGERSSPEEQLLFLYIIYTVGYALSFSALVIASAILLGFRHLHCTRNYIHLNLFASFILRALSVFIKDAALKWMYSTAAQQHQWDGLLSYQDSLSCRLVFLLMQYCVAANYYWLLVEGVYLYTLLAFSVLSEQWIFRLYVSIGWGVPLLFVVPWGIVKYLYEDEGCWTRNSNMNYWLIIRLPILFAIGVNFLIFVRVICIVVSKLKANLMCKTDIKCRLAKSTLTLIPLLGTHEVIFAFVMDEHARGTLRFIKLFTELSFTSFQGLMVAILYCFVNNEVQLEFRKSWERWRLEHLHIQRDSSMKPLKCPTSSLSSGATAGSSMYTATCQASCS

T2: rat GLP-1-R (rat), P32301
T2 chain: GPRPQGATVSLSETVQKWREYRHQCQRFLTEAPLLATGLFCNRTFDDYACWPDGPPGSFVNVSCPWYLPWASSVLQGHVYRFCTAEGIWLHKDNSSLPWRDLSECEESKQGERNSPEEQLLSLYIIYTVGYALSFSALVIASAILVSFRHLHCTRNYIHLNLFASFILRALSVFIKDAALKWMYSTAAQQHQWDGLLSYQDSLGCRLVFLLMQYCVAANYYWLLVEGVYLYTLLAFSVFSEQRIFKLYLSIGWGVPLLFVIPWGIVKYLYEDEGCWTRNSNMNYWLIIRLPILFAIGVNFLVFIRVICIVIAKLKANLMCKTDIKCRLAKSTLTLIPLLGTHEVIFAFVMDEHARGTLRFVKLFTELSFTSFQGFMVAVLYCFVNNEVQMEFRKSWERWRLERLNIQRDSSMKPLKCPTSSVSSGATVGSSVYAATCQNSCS


How the values were obtained:
[1] = biological target: human Gcg receptor (human), P47871; test: radioligand competition SPA, displacement of I-125 Gcg, hGcg-R 293HEK membranes
Sequence of human Gcg receptor (human), P47871 (P47871 26-477): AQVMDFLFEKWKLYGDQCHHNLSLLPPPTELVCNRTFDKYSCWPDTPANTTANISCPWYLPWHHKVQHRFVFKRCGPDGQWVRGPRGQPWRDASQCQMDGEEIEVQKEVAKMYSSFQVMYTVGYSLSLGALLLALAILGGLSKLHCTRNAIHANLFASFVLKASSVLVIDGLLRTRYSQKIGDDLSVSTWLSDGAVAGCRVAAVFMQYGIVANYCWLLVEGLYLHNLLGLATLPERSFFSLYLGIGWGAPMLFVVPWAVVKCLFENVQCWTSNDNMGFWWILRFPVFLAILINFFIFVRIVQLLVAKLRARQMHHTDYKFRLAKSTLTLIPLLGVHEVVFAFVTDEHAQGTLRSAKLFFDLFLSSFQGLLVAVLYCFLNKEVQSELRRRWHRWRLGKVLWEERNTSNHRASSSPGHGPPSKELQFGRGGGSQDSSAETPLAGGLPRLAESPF

[2] = biological target: human Gcg receptor (human), P47871; test: cell-based or functional assay
[3] = biological target: T1, human GLP-1 receptor (human), P43220; test: cell-based or functional assay
[4] = biological target: T1, human GLP-1 receptor (human), P43220; test: radioligand competition SPA, displacement of I-125 GLP-1, hGLP-1-R 293HEK membranes
[5] = biological target: T2, rat GLP-1-R (rat), P32301; test: cell-based or functional assay

| Ki [1] [nM] | EC50, cAMP production [2] [nM] | Emax, cAMP production [2] [%] | EC50, cAMP production [3] [nM] | Emax, cAMP production [3] [%] | Ki [4] [nM] | EC50 (nM), cAMP production in INS1 832-3 cells [5] [nM] | Emax (%), cAMP production in INS1 832-3 cells [5] [%] | EC50 (nM), cAMP production in primary human hepatocytes [2] [nM] | Binder |
| --- | --- | --- | --- | --- | --- | --- | --- | --- | --- |
| 14.6 | 7.21 |  | 23.9 | 104 | 23 | 26.1 | 112 | 99.9 | H-H[Aib]QGTFTSDYSKYLDEKKAK([AEEA-AEEA-γGlu-C18 diacid])EFVEWLLEGGPSSG-NH2 (SMILES CC(C)C[C@H](NC(=O)[C@H](CC(C)C)NC(=O)[C@H](Cc1c[nH]c2ccccc12)NC(=O)[C@H](CCC(=O)O)NC(=O)[C@@H](NC(=O)[C@H](Cc1ccccc1)NC(=O)[C@H](CCC(=O)O)NC(=O)[C@H](CCCCNC(=O)COCCOCCNC(=O)COCCOCCNC(=O)CC[C@H](NC(=O)CCCCCCCCCCCCCCCCC(=O)O)C(=O)O)NC(=O)[C@H](C)NC(=O)[C@H](CCCCN)NC(=O)[C@H](CCCCN)NC(=O)[C@H](CCC(=O)O)NC(=O)[C@H](CC(=O)O)NC(=O)[C@H](CC(C)C)NC(=O)[C@H](Cc1ccc(O)cc1)NC(=O)[C@H](CCCCN)NC(=O)[C@H](CO)NC(=O)[C@H](Cc1ccc(O)cc1)NC(=O)[C@H](CC(=O)O)NC(=O)[C@H](CO)NC(=O)[C@@H](NC(=O)[C@H](Cc1ccccc1)NC(=O)[C@@H](NC(=O)CNC(=O)[C@H](CCC(N)=O)NC(=O)C(C)(C)NC(=O)[C@@H](N)Cc1c[nH]cn1)[C@@H](C)O)[C@@H](C)O)C(C)C)C(=O)N[C@@H](CCC(=O)O)C(=O)NCC(=O)NCC(=O)N1CCC[C@H]1C(=O)N[C@@H](CO)C(=O)N[C@@H](CO)C(=O)NCC(N)=O) [Compound 1] |
| 17.7 | 26.5 |  | 83.1 | 107 | 28.6 | 62 | 104 | 159 | H-H[Aib]QGTFTSDYSKYLDEKKAK([AEEA-AEEA-γGlu-C20 diacid])EFVEWLLEGGPSSG-NH2 [Compound 2] |

Further lines, the binder ahead of its results:

| Binder | Ki [1] [nM] | EC50, cAMP production [2] [nM] | Emax, cAMP production [2] [%] | EC50, cAMP production [3] [nM] | Emax, cAMP production [3] [%] | Ki [4] [nM] | EC50 (nM), cAMP production in INS1 832-3 cells [5] [nM] | Emax (%), cAMP production in INS1 832-3 cells [5] [%] | EC50 (nM), cAMP production in primary human hepatocytes [2] [nM] |
| --- | --- | --- | --- | --- | --- | --- | --- | --- | --- |
| H-H[Aib]QGTFTSDYSKYLDEKKAK([AEEA-AEEA-γGlu-γGlu-C18 diacid])EFVEWLLSGGPSSG-NH2 (SMILES CC(C)C[C@H](NC(=O)[C@H](CC(C)C)NC(=O)[C@H](Cc1c[nH]c2ccccc12)NC(=O)[C@H](CCC(=O)O)NC(=O)[C@@H](NC(=O)[C@H](Cc1ccccc1)NC(=O)[C@H](CCC(=O)O)NC(=O)[C@H](CCCCNC(=O)COCCOCCNC(=O)COCCOCCNC(=O)CC[C@H](NC(=O)CC[C@H](NC(=O)CCCCCCCCCCCCCCCCC(=O)O)C(=O)O)C(=O)O)NC(=O)[C@H](C)NC(=O)[C@H](CCCCN)NC(=O)[C@H](CCCCN)NC(=O)[C@H](CCC(=O)O)NC(=O)[C@H](CC(=O)O)NC(=O)[C@H](CC(C)C)NC(=O)[C@H](Cc1ccc(O)cc1)NC(=O)[C@H](CCCCN)NC(=O)[C@H](CO)NC(=O)[C@H](Cc1ccc(O)cc1)NC(=O)[C@H](CC(=O)O)NC(=O)[C@H](CO)NC(=O)[C@@H](NC(=O)[C@H](Cc1ccccc1)NC(=O)[C@@H](NC(=O)CNC(=O)[C@H](CCC(N)=O)NC(=O)C(C)(C)NC(=O)[C@@H](N)Cc1c[nH]cn1)[C@@H](C)O)[C@@H](C)O)C(C)C)C(=O)N[C@@H](CO)C(=O)NCC(=O)NCC(=O)N1CCC[C@H]1C(=O)N[C@@H](CO)C(=O)N[C@@H](CO)C(=O)NCC(N)=O) [Compound 3] | 37.3 | 15.3 | 104 | 34.3 | 105 | 8.68 |  |  |  |
| H-H[Aib]QGTFTSDYSKYLDEKKAK([AEEA-AEEA-γGlu-γGlu-C20 diacid])EFVEWLLSGGPSSG-NH2 (SMILES CC(C)C[C@H](NC(=O)[C@H](CC(C)C)NC(=O)[C@H](Cc1c[nH]c2ccccc12)NC(=O)[C@H](CCC(=O)O)NC(=O)[C@@H](NC(=O)[C@H](Cc1ccccc1)NC(=O)[C@H](CCC(=O)O)NC(=O)[C@H](CCCCNC(=O)COCCOCCNC(=O)COCCOCCNC(=O)CC[C@H](NC(=O)CC[C@H](NC(=O)CCCCCCCCCCCCCCCCCCC(=O)O)C(=O)O)C(=O)O)NC(=O)[C@H](C)NC(=O)[C@H](CCCCN)NC(=O)[C@H](CCCCN)NC(=O)[C@H](CCC(=O)O)NC(=O)[C@H](CC(=O)O)NC(=O)[C@H](CC(C)C)NC(=O)[C@H](Cc1ccc(O)cc1)NC(=O)[C@H](CCCCN)NC(=O)[C@H](CO)NC(=O)[C@H](Cc1ccc(O)cc1)NC(=O)[C@H](CC(=O)O)NC(=O)[C@H](CO)NC(=O)[C@@H](NC(=O)[C@H](Cc1ccccc1)NC(=O)[C@@H](NC(=O)CNC(=O)[C@H](CCC(N)=O)NC(=O)C(C)(C)NC(=O)[C@@H](N)Cc1c[nH]cn1)[C@@H](C)O)[C@@H](C)O)C(C)C)C(=O)N[C@@H](CO)C(=O)NCC(=O)NCC(=O)N1CCC[C@H]1C(=O)N[C@@H](CO)C(=O)N[C@@H](CO)C(=O)NCC(N)=O) [Compound 4] | 27.4 | 68.8 | 116 | 106 | 85.2 | 20.2 |  |  |  |
